For data set [1], the target named is HIV-1 nucleocapsid protein NCp7 (HIV-1) (UniProt P03349). The note with it: Cy3-NCp7 microarray; 3.5x background (AUA).
The target of data set [2] is T1, HIV-1 nucleocapsid protein NCp7 (HIV-1, UniProt P03349 P03349:380-434). Put plainly: Trp37 fluorescence quenching, PBS pH 7.4, 0.1% Tween-20, 5 mM MgCl2, 25 C; 1:1. The note with it: tags: unlabelled for Trp titration; Cy3/Dylight-labelled for chips; made in house, >95% pure; hairpin.
The target in data set [3] is T1, HIV-1 nucleocapsid protein NCp7. Briefly: multiple NCp7 bound per TBA in Trp37 titration; positive on chip. The following applies: tags: unlabelled for Trp titration; Cy3/Dylight-labelled for chips; made in house, >95% pure; G4.
Data set [4] has the same target. Briefly: Trp37 fluorescence quenching, PBS, 5 mM MgCl2, 25 C; negative on chip. The note with it: tags: unlabelled for Trp titration; Cy3/Dylight-labelled for chips; made in house, >95% pure; hairpin.

TGTNNN [N6-56(64) pool] registered a binding signal (fold of GUG control) in data set [1] of 1.5.

In general, Kd refers to the concentration at which binding is half-saturated. Take GGACUAGCGGUGGCUAGUCC (ssRNA) [G control (SL3-GUG)]: binding in data set [2] was put at a Kd of 10 nM. As for GGTTGGTGTGGTTGG (structured_DNA) [control 33 (TBA)], the binding result in data set [3] is given as “binds”. In the case of GGACUAGCGAUAGCUAGUCC (ssRNA) [A control (SL3-AUA)], the affinity in data set [4], expressed as Kd, was 200 nM.

For the origin of these results see patent publication US20110263459, “DIRECT SELECTION OF STRUCTURALLY DEFINED APTAMERS” (published 2011).
